Substitutions are numbered along the chain they refer to.
B1: 1DAN LT59A (protein, UniProt P13726 33-295, looked up, variant L59A)
Tissue factor: SGTTNTVAAYNLTWKSTNFKTILEWEPKPVNQVYTVQISTKSGDWKSKCFYTTDTECDATDEIVKDVKQTYLARVFSYPAGNVESTGSAGEPLYENSPEFTPYLETNLGQPTIQSFEQVGTKVNVTVEDERTLVRRNNTFLSLRDVFGKDLIYTLYYWKSSSSGKKTAKTNTNEFLIDVDKGENYCFSVQAVIPSRTVNRKSTDSPVECMGQEKGEFREIFYIIGAVVFVVIILVIILAISLHKCRKAGVGQSWKENSPLNVS
B2: 1A4Y YA434A (protein, UniProt P13489 2-461, looked up, variant Y434A)
Ribonuclease inhibitor: SLDIQSLDIQCEELSDARWAELLPLLQQCQVVRLDDCGLTEARCKDISSALRVNPALAELNLRSNELGDVGVHCVLQGLQTPSCKIQKLSLQNCCLTGAGCGVLSSTLRTLPTLQELHLSDNLLGDAGLQLLCEGLLDPQCRLEKLQLEYCSLSAASCEPLASVLRAKPDFKELTVSNNDINEAGVRVLCQGLKDSPCQLEALKLESCGVTSDNCRDLCGIVASKASLRELALGSNKLGDVGMAELCPGLLHPSSRLRTLWIWECGITAKGCGDLCRVLRAKESLKELSLAGNELGDEGARLLCETLLEPGCQLESLWVKSCSFTAACCSHFSSVLAQNRFLLELQISNNRLEDAGVRELCQGLGQPGSVLRVLWLADCDVSDSSCSSLAATLLANHSLRELDLSNNCLGDAGILQLVESVRQPGCLLEQLVLADIYWSEEMEDRLQALEKDKPSLRVIS
B3: 1A4Y YA437A (protein, UniProt P13489 2-461, looked up, variant Y437A)
Ribonuclease inhibitor: B2 Ribonuclease inhibitor with A434Y, Y437A
B4: 1A4Y IA459A (protein, UniProt P13489 2-461, looked up, variant I459A)
Ribonuclease inhibitor: B2 Ribonuclease inhibitor with A434Y, I459A
B5: 1AHW YC157A (protein, UniProt P13726 33-251, looked up, variant Y157A)
extracellular domain: SGTTNTVAAYNLTWKSTNFKTILEWEPKPVNQVYTVQISTKSGDWKSKCFYTTDTECDLTDEIVKDVKQTYLARVFSYPAGNVESTGSAGEPLYENSPEFTPYLETNLGQPTIQSFEQVGTKVNVTVEDERTLVRRNNTFLSLRDVFGKDLIYTLYAWKSSSSGKKTAKTNTNEFLIDVDKGENYCFSVQAVIPSRTVNRKSTDSPVECMGQEKGEFRE
modifications: extracellular domain
B6: 1DAN YT51A (protein, UniProt P13726 33-251, looked up, variant Y51A)
extracellular domain: B5 extracellular domain with Y51A, A157Y
modifications: extracellular domain
B7: 1DAN LT72A (protein, UniProt P13726 33-251, looked up, variant L72A)
extracellular domain: B5 extracellular domain with L72A, A157Y
modifications: extracellular domain
B8: 1DAN LU133A (protein, UniProt P13726 33-251, looked up, variant L133A)
extracellular domain: B5 extracellular domain with L133A, A157Y
modifications: extracellular domain
B9: 1DAN IT22A (protein, UniProt P13726 33-251, looked up, variant I22A)
extracellular domain: B5 extracellular domain with I22A, A157Y
modifications: extracellular domain
B10: 1DAN VT33A (protein, UniProt P13726 33-251, looked up, variant V33A)
extracellular domain: B5 extracellular domain with V33A, A157Y
modifications: extracellular domain
B11: 1DAN VU179A (protein, UniProt P13726 33-251, looked up, variant V179A)
extracellular domain: B5 extracellular domain with A157Y, V179A
modifications: extracellular domain
B12: 1DAN YU94A (protein, UniProt P13726 33-251, looked up, variant Y94A)
extracellular domain: B5 extracellular domain with Y94A, A157Y
modifications: extracellular domain
B13: 1DAN VT64A (protein, UniProt P13726 33-251, looked up, variant V64A)
extracellular domain: B5 extracellular domain with V64A, A157Y
modifications: extracellular domain
B14: 1DAN VU146A (protein, UniProt P13726 33-251, looked up, variant V146A)
extracellular domain: B5 extracellular domain with V146A, A157Y
modifications: extracellular domain
B15: 1DAN VU198A (protein, UniProt P13726 33-251, looked up, variant V198A)
extracellular domain: B5 extracellular domain with A157Y, V198A
modifications: extracellular domain
B16: 1AHW VC198A (protein, UniProt P13726 33-251, looked up, variant V198A)
extracellular domain: B5 extracellular domain with A157Y, V198A
modifications: extracellular domain
B17: 1DAN WT45A (protein, UniProt P13726 33-251, looked up, variant W45A)
extracellular domain: B5 extracellular domain with W45A, A157Y
modifications: extracellular domain
B18: 1DAN VT36A (protein, UniProt P13726 33-251, looked up, variant V36A)
extracellular domain: B5 extracellular domain with V36A, A157Y
modifications: extracellular domain
B19: 1DAN FU140A (protein, UniProt P13726 33-251, looked up, variant F140A)
extracellular domain: B5 extracellular domain with F140A, A157Y
modifications: extracellular domain
B20: 1DAN FT76A (protein, UniProt P13726 33-251, looked up, variant F76A)
extracellular domain: B5 extracellular domain with F76A, A157Y
modifications: extracellular domain
B21: 1AHW LC176A (protein, UniProt P13726 33-251, looked up, variant L176A)
extracellular domain: B5 extracellular domain with A157Y, L176A
modifications: extracellular domain
B22: 1DAN VU207A (protein, UniProt P13726 33-251, looked up, variant V207A)
extracellular domain: B5 extracellular domain with A157Y, V207A
modifications: extracellular domain
B23: 1DAN FT50A (protein, UniProt P13726 33-251, looked up, variant F50A)
extracellular domain: B5 extracellular domain with F50A, A157Y
modifications: extracellular domain
B24: 1DAN YU157A (protein, UniProt P13726 33-251, looked up, variant Y157A)
extracellular domain: B5 extracellular domain
modifications: extracellular domain
B25: 1DAN IU152A (protein, UniProt P13726 33-251, looked up, variant I152A)
extracellular domain: B5 extracellular domain with I152A, A157Y
modifications: extracellular domain
B26: 1DAN YT78A (protein, UniProt P13726 33-251, looked up, variant Y78A)
extracellular domain: B5 extracellular domain with Y78A, A157Y
modifications: extracellular domain

Assays:
[1] = test system: PPIs of the SKEMPI data set (by PDBID); conditions: single mutation to alanine, sheet sortedByGroup, r_group FAMILYVW; ref SKEMPI; cited from earlier work
[2] = test system: PPIs of the SKEMPI data set (by PDBID); experiment: SKEMPI experimental ΔΔG, single mutations to alanine; type: binding; conditions: class of the SKEMPI experimental ΔΔG

| Molecule | sk_ddG_kJ (SKEMPI experimental ΔΔG) [1] [kJ] | sk_class [2] |
| --- | --- | --- |
| B1 | 0.00 | Neutral (neutral (little effect) 4.184 kJ/mol < ΔΔG > −4.184 kJ/mol) |
| B2 | 13.64 | Positive (positive (a hot residue) ΔΔG ≥ 4.184 kJ/mol) |
| B3 | 3.43 | Neutral (neutral (little effect) 4.184 kJ/mol < ΔΔG > −4.184 kJ/mol) |
| B4 | 2.80 | Neutral (neutral (little effect) 4.184 kJ/mol < ΔΔG > −4.184 kJ/mol) |
| B5 | -7.91 | Negative (negative (affinity enhancing) ΔΔG ≤ −4.184 kJ/mol) |
| B6 | -0.54 | Neutral (neutral (little effect) 4.184 kJ/mol < ΔΔG > −4.184 kJ/mol) |
| B7 | -0.25 | Neutral (neutral (little effect) 4.184 kJ/mol < ΔΔG > −4.184 kJ/mol) |
| B8 | -0.08 | Neutral (neutral (little effect) 4.184 kJ/mol < ΔΔG > −4.184 kJ/mol) |
| B9 | 2.72 | Neutral (neutral (little effect) 4.184 kJ/mol < ΔΔG > −4.184 kJ/mol) |
| B10 | -0.79 | Neutral (neutral (little effect) 4.184 kJ/mol < ΔΔG > −4.184 kJ/mol) |
| B11 | 0.46 | Neutral (neutral (little effect) 4.184 kJ/mol < ΔΔG > −4.184 kJ/mol) |
| B12 | 4.31 | Positive (positive (a hot residue) ΔΔG ≥ 4.184 kJ/mol) |
| B13 | 0.00 | Neutral (neutral (little effect) 4.184 kJ/mol < ΔΔG > −4.184 kJ/mol) |
| B14 | 0.84 | Neutral (neutral (little effect) 4.184 kJ/mol < ΔΔG > −4.184 kJ/mol) |
| B15 | 0.46 | Neutral (neutral (little effect) 4.184 kJ/mol < ΔΔG > −4.184 kJ/mol) |
| B16 | -1.30 | Neutral (neutral (little effect) 4.184 kJ/mol < ΔΔG > −4.184 kJ/mol) |
| B17 | 6.53 | Positive (positive (a hot residue) ΔΔG ≥ 4.184 kJ/mol) |
| B18 | -0.54 | Neutral (neutral (little effect) 4.184 kJ/mol < ΔΔG > −4.184 kJ/mol) |
| B19 | 5.40 | Positive (positive (a hot residue) ΔΔG ≥ 4.184 kJ/mol) |
| B20 | 4.81 | Positive (positive (a hot residue) ΔΔG ≥ 4.184 kJ/mol) |
| B21 | 4.14 | Neutral (neutral (little effect) 4.184 kJ/mol < ΔΔG > −4.184 kJ/mol) |
| B22 | 6.57 | Positive (positive (a hot residue) ΔΔG ≥ 4.184 kJ/mol) |
| B23 | 1.84 | Neutral (neutral (little effect) 4.184 kJ/mol < ΔΔG > −4.184 kJ/mol) |
| B24 | 0.00 | Neutral (neutral (little effect) 4.184 kJ/mol < ΔΔG > −4.184 kJ/mol) |
| B25 | 0.75 | Neutral (neutral (little effect) 4.184 kJ/mol < ΔΔG > −4.184 kJ/mol) |
| B26 | 2.72 | Neutral (neutral (little effect) 4.184 kJ/mol < ΔΔG > −4.184 kJ/mol) |

Reference: publication PMC6804253, “Predicting and Experimentally Validating Hot-Spot Residues at Protein–Protein Interfaces” (ACS Chemical Biology, 2019)
